How the values were obtained:
Assay in all cases: pull-down binding Z-score (relative to library population); higher = stronger binding
[1] = tested on: G-clamp-N3 (biotin conjugate); conditions: RNA library: Library-1 (pre-miRNA loops + repeats)
How it was run: (§1)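 The RNA library, end-labelled with Cy5 or Cy3, was heat-folded in phosphate/NaCl/KCl buffer, and 1 μg was incubated at 25 °C for 60 min with streptavidin beads carrying 100 pmol of biotin-conjugated small molecule. Hot SDS released the bound RNA, which was then hybridised to a DNA barcode microarray for 20 h at 55.5 °C. For scoring binding, signal from beads alone was subtracted, replicate barcoded probes were averaged after discarding the highest and lowest, and each value was turned into a Z-score from the library mean and standard deviation.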

[2] = tested on: TO-3-N3 (biotin conjugate); conditions: RNA library: Library-2
How it was run: as §1

[3] = tested on: TO-3-N3-2 (biotin conjugate); conditions: RNA library: Library-2
How it was run: as §1

TO-N3 (biotin conjugate) = conditions: RNA library: Library-2
How it was run: as §1

[4] = tested on: TO-N3-2 (biotin conjugate); conditions: RNA library: Library-2
How it was run: as §1

With “CUGAGUAACUUGUGCUUAUAACUCAG [hsa-mir-5000]” the “pull-down binding Z-score” value [1] was 0.251, the “pull-down binding Z-score” value [2] was 0.396 and the “pull-down binding Z-score” value [3] was 0.379. The “pull-down binding Z-score” value (TO-N3 (biotin conjugate)) was 0.194 and the “pull-down binding Z-score” value [4] was -0.396.
With CUGAUUCAGAAAGAUCAUCGG [hsa-mir-127] the “pull-down binding Z-score” value [1] was -0.634, the “pull-down binding Z-score” value [2] was -0.444 and the “pull-down binding Z-score” value [3] was 0.0704. For the same sequence, the “pull-down binding Z-score” value (TO-N3 (biotin conjugate)) was -0.346 and the “pull-down binding Z-score” value [4] was 0.226.
In the case of “CUGAUUGUCAUAUGUCGUUUGUGGGAUCCG [hsa-mir-340]”, the “pull-down binding Z-score” value [1] is reported as -0.698, the “pull-down binding Z-score” value [2] is reported as -0.605 and the “pull-down binding Z-score” value [3] is reported as -0.336. The “pull-down binding Z-score” value (TO-N3 (biotin conjugate)) was -0.333 and the “pull-down binding Z-score” value [4] was 0.334.
For CUGCAGAACAUUGCAG [hsa-mir-4310], the “pull-down binding Z-score” value [1] was 0.0291, the “pull-down binding Z-score” value [2] was -0.487 and the “pull-down binding Z-score” value [3] was -0.408. For the same sequence, the “pull-down binding Z-score” value (TO-N3 (biotin conjugate)) was -0.727 and the “pull-down binding Z-score” value [4] was -1.08.
With CUGCAGAGACGAGGCCUGUAG [hsa-mir-5682] the “pull-down binding Z-score” value [1] was 0.122, the “pull-down binding Z-score” value [2] was 0.688 and the “pull-down binding Z-score” value [3] was 0.149. The “pull-down binding Z-score” value (TO-N3 (biotin conjugate)) was 0.828 and the “pull-down binding Z-score” value [4] was 0.886.
“CUGCAGGAAAGGGAAGACCAAGGCUUGCUGUCUGUCCAGUCUGCCACCCUACCCUGU [hsa-mir-1231]” was tested, and the “pull-down binding Z-score” value [1] was -0.156, the “pull-down binding Z-score” value [2] was -0.0839 and the “pull-down binding Z-score” value [3] was 0.108. For the same sequence, the “pull-down binding Z-score” value (TO-N3 (biotin conjugate)) was 0.788 and the “pull-down binding Z-score” value [4] was 1.54.
CUGCAGGGACUGUGACACUGAA [hsa-mir-6816] was tested, and the “pull-down binding Z-score” value [1] was 1.64, the “pull-down binding Z-score” value [2] was -0.0339 and the “pull-down binding Z-score” value [3] was 0.24. For the same sequence, the “pull-down binding Z-score” value (TO-N3 (biotin conjugate)) was 0.85 and the “pull-down binding Z-score” value [4] was 1.22.
For “CUGCAGUGAGCGAUCGGUGCUCUGGGG [hsa-mir-503]”, the “pull-down binding Z-score” value [1] was 1.34, the “pull-down binding Z-score” value [2] was 0.176 and the “pull-down binding Z-score” value [3] was 0.308. The “pull-down binding Z-score” value (TO-N3 (biotin conjugate)) was 0.798 and the “pull-down binding Z-score” value [4] was 1.07.
In the case of CUGCAGUGAGUAGGUCUGCCU [hsa-mir-4254], the “pull-down binding Z-score” value [1] is reported as -0.362, the “pull-down binding Z-score” value [2] is reported as 0.19 and the “pull-down binding Z-score” value [3] is reported as 0.253. The “pull-down binding Z-score” value (TO-N3 (biotin conjugate)) was 0.705 and the “pull-down binding Z-score” value [4] was 1.17.
For “CUGCCAUUGAAAGUAAAGGCAA [hsa-mir-548ag-2]”, the “pull-down binding Z-score” value [1] was 0.525, the “pull-down binding Z-score” value [2] was 0.656 and the “pull-down binding Z-score” value [3] was 0.239. The “pull-down binding Z-score” value (TO-N3 (biotin conjugate)) was 0.608 and the “pull-down binding Z-score” value [4] was 0.104.
For “CUGCCCCUCGAAUCUGCUCCACGAUUUGGGCAG [hsa-mir-4436a]”, the “pull-down binding Z-score” value [1] was 0.401, the “pull-down binding Z-score” value [2] was 0.0656 and the “pull-down binding Z-score” value [3] was -0.181. The “pull-down binding Z-score” value (TO-N3 (biotin conjugate)) was -0.337 and the “pull-down binding Z-score” value [4] was -0.521.
With “CUGCGGCCCUGAUGUCUCUACUCCAG [hsa-mir-4691]” the “pull-down binding Z-score” value [1] was -0.134, the “pull-down binding Z-score” value [2] was 0.388 and the “pull-down binding Z-score” value [3] was 0.103. The “pull-down binding Z-score” value (TO-N3 (biotin conjugate)) was 0.703 and the “pull-down binding Z-score” value [4] was 0.919.
CUGCUCUCCCUGGCAGCAAG [hsa-mir-7109] was tested, and the “pull-down binding Z-score” value [1] was 1.5, the “pull-down binding Z-score” value [2] was -0.207 and the “pull-down binding Z-score” value [3] was -0.0188. For the same sequence, the “pull-down binding Z-score” value (TO-N3 (biotin conjugate)) was 0.283 and the “pull-down binding Z-score” value [4] was 0.6.
In the case of CUGCUGAAUCUUCAGAAAGG [hsa-mir-3142], the “pull-down binding Z-score” value [1] is reported as -0.0627, the “pull-down binding Z-score” value [2] is reported as -0.432 and the “pull-down binding Z-score” value [3] is reported as -0.178. The “pull-down binding Z-score” value (TO-N3 (biotin conjugate)) was -0.164 and the “pull-down binding Z-score” value [4] was 0.135.
For CUGCUGCCGAUUCUGCACCAG [hsa-mir-4756], the “pull-down binding Z-score” value [1] was -1.02, the “pull-down binding Z-score” value [2] was -0.432 and the “pull-down binding Z-score” value [3] was -0.46. For the same sequence, the “pull-down binding Z-score” value (TO-N3 (biotin conjugate)) was -0.301 and the “pull-down binding Z-score” value [4] was 0.461.
For “CUGCUGCUGCUGCUGCUGCUGCUGCUGCUGCUGCUGCUGCUGCUGCUG [r(CUG)16]”, the “pull-down binding Z-score” value [1] was 2.5, the “pull-down binding Z-score” value [2] was -0.0148 and the “pull-down binding Z-score” value [3] was -0.215. For the same sequence, the “pull-down binding Z-score” value (TO-N3 (biotin conjugate)) was 0.778 and the “pull-down binding Z-score” value [4] was 1.37.
For “CUGCUUUUAAAGGUAAUGGCAA [hsa-mir-548ag-1]”, the “pull-down binding Z-score” value [1] was -0.0258, the “pull-down binding Z-score” value [2] was 0.107 and the “pull-down binding Z-score” value [3] was -0.0835. The “pull-down binding Z-score” value (TO-N3 (biotin conjugate)) was 0.193 and the “pull-down binding Z-score” value [4] was -0.0105.
In the case of “CUGGAGUCGCCUGAGUCAUCACUCAG [hsa-mir-3065]”, the “pull-down binding Z-score” value [1] is reported as -0.66, the “pull-down binding Z-score” value [2] is reported as -0.142 and the “pull-down binding Z-score” value [3] is reported as -0.276. For the same sequence, the “pull-down binding Z-score” value (TO-N3 (biotin conjugate)) was 0.0597 and the “pull-down binding Z-score” value [4] was 0.525.

From the supplement of paper PMC11865577
